Assay results reported in the supplement of paper PMC10567573.

B1: COX4I1 (parent)
chain: VAHVKHLSASQKALKEKEKASWSS
B2: SMTNL2 (parent)
chain: AFTMAENLANCERLIEVEDMMVMG

Variants of: B1
Assay: protein stability index of a GFP-peptide fusion (GPS, HEK-293T) (PSI 1-6); higher = more stable
Details: c terminus: a fixed tail appended
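Note: lentivirally expressed fusions sorted by FACS into six bins by GFP to DsRed ratio, PSI derived from sequencing read proportions per bin multiplied by bin number.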

Variant	protein stability index
V1S	3.73
V1P	3.53
V1A	3.05
V1D	3.98
V1K	3.57
V1Q	4.05
V1M	3.05
V1N	3.96
V1C	3.06
V1H	3.25
V1W	2.41
V1I	3.35
V1Y	2.7
V1R	3.83
V1T	4.03
V1L	2.95
V1F	2.34
V1G	4.06
V1E	3.79
H3D	4.11
H3E	4.11
H3F	2.52
H3G	3.22
H3I	2.58
H3R	3.19
H3S	3.27
H3K	3.16

Variant	protein stability index
H3L	2.6
H3M	3.43
H3V	3.13
H3A	3.44
H3T	3.77
H3N	4.5
H3Q	3.28
H3Y	2.7
H3W	2.1
H3C	2.75
H3P	3.73
A2T	3.86
A2Y	2.3
A2C	3.44
A2M	3.19
A2Q	3.46
A2H	3.72
A2P	3.77
A2G	3.29
A2D	3.6
A2S	3.25
A2E	3.77
A2L	3.38
A2W	2.92
A2K	3.02
A2N	2.81
A2V	2.72

Variant	protein stability index
A2F	2.23
A2R	2.77
A2I	2.29
V4M	3.55
V4L	2.88
V4R	2.91
V4K	3.48
V4F	2.83
V4S	3.35
V4N	3.64
V4I	3.03
V4T	4.15
V4H	3.74
V4C	3.34
V4A	4.1
V4G	3.47
V4D	3.45
V4W	3.25
V4Q	2.73
V4Y	3.27
V4E	3.71
K5A	3.67
K5D	3.27
K5C	2.61
K5E	3.69

Variants of: B2
Assay: as above
Details: c terminus: a fixed tail appended

Variant	protein stability index
E16F	2.14
E16K	1.89
G24I	1.64
G24L	1.74
G24P	2.07
G24D	2.33
N7Y	1.62
N7H	1.92
N7M	1.67
N7W	1.49
D19N	2.63
D19H	1.28
D19R	1.39
A1E	2.1
A1T	1.81
A1L	1.75
A1V	2.06
A1R	2.84
A1F	1.86
V22G	2.54
V22I	1.78
V22Q	2.82

Variant	protein stability index
V22S	1.99
I15G	3.77
I15C	3.64
I15Y	2.95
E12S	2.92
L8D	4.36
L8G	4.02
L8P	4.09
R13Q	3.17
R13W	2.42
R13C	2.08
R13G	3.46
R13T	2.99
R13K	2.67
M21T	2.68
M21V	2.18
M21K	2.95
M21S	2.65
A9Y	2
A9C	2.48
A9Q	2.91
A9R	2.31

Variant	protein stability index
T3W	1.74
T3E	2.15
T3D	2.85
L14C	3.33
L14Y	2.13
M23P	2
M23N	2.97
M23H	2.24
V17R	2.88
M4I	2.96
M4H	3.81
M4C	3.13
M4F	2.51
M4D	4.08
M4A	4.14
A5V	2.03
A5D	3.78
F2L	2.27
F2A	3.7
F2S	3.49
F2M	2.08
F2H	3.48

Variant	protein stability index
M20A	2.42
M20I	2.03
M20K	2.91
M20C	2.74
M20L	1.9
E6M	4.33
E6F	2.45
E6C	2.27
E6S	1.65
E6P	2.89
E18W	1.02
E18K	2.03
N10K	2.48
N10L	1.64
N10Q	3.5
N10C	2
N10I	1.86
N10W	1.68
N10T	2.19
C11G	3.23
C11M	2.95
C11P	3.49
